Results: patent US20250066503A1, “CELL INJURY INDUCING THERAPEUTIC DRUG FOR USE IN CANCER THERAPY” (CHUGAI SEIYAKU KABUSHIKI KAISHA, priority 2016, published 2025)
Positions count from the first letter of the chain named. Names may count otherwise.

B1: H0000/GL4 single-arm antibody (antibody, human IgG1, V domains shown)
VH: QVQLVQSGAEVKKPGASVKVSCKASGYTFTDYEMHWIRQPPGQGLEWIGAIDPKTGDTAYSQKFKGRVTLTADKSTSTAYMELSSLTSEDTAVYYCTRFYSYTYWGQGTLVTVSS
VL: DIVMTQSPLSLPVTPGEPASISCRSSQSLVHSNRNTYLHWYQQKPGQAPRLLIYKVSNRFSGVPDRFSGSGSGTDFTLKISRVEAEDVGVYYCSQNTHVPPTFGQGTKLEIK
notes: single Fab on human IgG1 Fc heterodimerized by knobs-into-hole
B2: H0000/L0000 single-arm antibody (antibody, human IgG1, V domains shown)
VH: B1 VH
VL: B1 VL with S94G, N96G, H98Q, P101Y
notes: as for B1
B3: TR01H015-E2702GsKsc/GCH019-E2704sEpsc/L0000-k0 (bispecific antibody, human IgG4 S228P, kappa, N297A)
heavy 1: QVQLVESGGGLVQPGRSLRLSCAASGFTFSNAWMHWVRQAPGKGLEWVAQIKGKSNNYATYYAESVKGRFTISRADSKNSIYLQMNSLKTEDTAVYYCRYVHYSASYGVDIWGQGTTVTVSSASTKGPSVFPLAPCSRSTSESTAALGCLVKDYFPEPVTVSWNSGALTSGVHTFPAVLQSSGLYSLSSVVTVPSSSLGTKTYTCNVDHKPSNTKVDKRVESKYGPPCPPCPAPEFRGGPKVFLFPPKPKDTLMISRTPEVTCVVVDVSQEDPEVQFNWYVDGVEVHNAKTKPREEQFASTYRVVSVLTVLHQDWLNGKEYKCKVSNKGLPSSIEKTISKAKGQPREPQVYTLPPSQKEMTKNQVSLTCLVKGFYPSDIAVEWESNGQPENNYKTTPPVLDSDGSFFLYSKLTVDKSRWQEGNVFSCSVMHEALHNRYTQKSLSLSP
heavy 2: QVQLVQSGAEVKKPGASVTVSCKASGYTFTDYEMHWIRQPPGEGLEWIGAIDGKTPDTAYEQKFKGRVTLTADKSTSTAYMELSSLTSEDTAVYYCTRFYSYTYWGQGTLVTVSSASTKGPSVFPLAPCSRSTSESTAALGCLVKDYFPEPVTVSWNSGALTSGVHTFPAVLQSSGLYSLSSVVTVPSSSLGTQTYTCNVDHKPSNTKVDKRVESKYGPPCPPCPAPEFRGGPKVFLFPPKPKDTLMISRTPEVTCVVVDVSQEDPEVQFNWYVDGVEVHNAKTKPREEQFASTYRVVSVLTVLHQDWLNGKEYKCKVSNKGLPSSIEKTISKAKGQPREPQVYTLPPSQEEMTKNQVSLTCLVKGFYPSDIAVEWESNGQPENNYKTTPPVLDSDGSFFLYSKLTVDKSRWQEGNVFSCSVMHEALHNHYTQESLSLSP
light: DIVMTQSPLSLPVTPGEPASISCRSSQSLVHSNRNTYLHWYQQKPGQAPRLLIYKVSNRFSGVPDRFSGSGSGTDFTLKISRVEAEDVGVYYCGQGTQVPYTFGQGTKLEIKRTVAAPSVFIFPPSDEQLKSGTASVVCLLNNFYPREAKVQWKVDNALQSGNSQESVTEQDSKDSTYSLSSTLTLSKADYEKHKVYACEVTHQGLSSPVTKSFNRGEC
notes: common L chain format
B4: CE115HA251-E22Hh/L0000-k0/GL4-E22Hk/H0610-E22L (bispecific antibody, human IgG1, kappa, L234A L235A, N297A)
heavy: QVQLVESGGGVVQPGRSLRLSCAASGFTFSNAWMHWVRQAPGKGLEWVAQIKAKSNNYATYYAESVKGRFTISRDDSKNSLYLQMNSLKTEDTAVYYCRYVHYYYYYGVDAWGQGTTVTVSSASTKGPSVFPLAPSSKSTSGGTAALGCLVKDYFPEPVTVSWNSGALTSGVHTFPAVLQSSGLYSLSSVVTVPSSSLGTQTYICNVNHKPSNTKVDKKVEPKSCDKTHTCPPCPAPEAAGGPSVFLFPPKPKDTLMISRTPEVTCVVVDVSHEDPEVKFNWYVDGVEVHNAKTKPREEQYASTYRVVSVLTVLHQDWLNGKEYKCKVSNKALPAPIEKTISKAKGQPREPQVYTLPPSRCELTKNQVSLSCAVKGFYPSDIAVEWESNGQPENNYKTTPPVLDSDGSFFLVSKLTVDKSRWQQGNVFSCSVMHEALHNHYTQKSLSLSPDYKDDDDK
light: B3 light
chain 1: DIVMTQSPLSLPVTPGEPASISCRSSQSLVHSNRNTYLHWYQQKPGQAPRLLIYKVSNRFSGVPDRFSGSGSGTDFTLKISRVEAEDVGVYYCSQNTHVPPTFGQGTKLEIKSSASTKGPSVFPLAPSSKSTSGGTAALGCLVKDYFPEPVTVSWNSGALTSGVHTFPAVLQSSGLYSLSSVVTVPSSSLGTQTYICNVNHKPSNTKVDKKVEPKSCDKTHTCPPCPAPEAAGGPSVFLFPPKPKDTLMISRTPEVTCVVVDVSHEDPEVKFNWYVDGVEVHNAKTKPREEQYASTYRVVSVLTVLHQDWLNGKEYKCKVSNKALPAPIEKTISKAKGQPREPQVCTLPPSRDELTKNQVSLWCLVKGFYPSDIAVEWESNGQPENNYKTTPPVLDSDGSFFLYSKLTVDKSRWQQGNVFSCSVMHEALHNHYTQKSLSLSPHHHHHHHH
chain 2: QVQLVQSGAEVKKPGASVKVSCKASGYTFTDYEMHWIRQPPGQGLEWIGAIDGKTPDTAYSQKFKGRVTLTADKSTSTAYMELSSLTSEDTAVYYCTRFYSYTYWGQGTLVTVSSASVAAPSVFIFPPSDEQLKSGTASVVCLLNNFYPREAKVQWKVDNALQSGNSQESVTEQDSKDSTYSLSSTLTLSKADYEKHKVYACEVTHQGLSSPVTKSFNRGEC
notes: ERY22 format
B5: CE115HA236-E22Hh/GLS3108-k0/GL4-E22Hk/H0610-E22L (bispecific antibody, human IgG1, kappa, L234A L235A, N297A)
heavy: B4 heavy with Y105A, D110Q
light: B3 light with H39S
chain 1: B4 chain 1
chain 2: B4 chain 2
notes: ERY22 format
B6: GPC3_ERY27 (hCE115HA-E22Hh/L0000-k0/GL4-E22Hk/H0000-E22L) (bispecific antibody, human IgG1, kappa, L234A L235A, N297A)
heavy: B4 heavy with Y104G, Y105A
light: B3 light
chain 1: B4 chain 1
chain 2: B4 chain 2 with G53P, P56G
notes: ERY22 format
B7: TR01H015-E22Hh/L0000-k0/GL4-E22Hk/H0610-E22L (bispecific antibody, human IgG1, kappa, L234A L235A, N297A)
heavy: B4 heavy with V11L, A53G, D75A, L81I, Y104S, Y105A, Y106S, A111I
light: B3 light
chain 1: B4 chain 1
chain 2: B4 chain 2
notes: ERY22 format
B8: TR01H002-E22Hh/GLS3108-k0/GL4-E22Hk/H0610-E22L (bispecific antibody, human IgG1, kappa, L234A L235A, N297A)
heavy: B4 heavy with A59K, T60K, D110Q
light: B3 light with H39S
chain 1: B4 chain 1
chain 2: B4 chain 2
notes: ERY22 format

Key:
human GPC3 [1] = molecular target: T1, human GPC3 (human, UniProt P51654 25-563); test: SPR, antibody captured by Protein A/G
T1 construct: range 25-563; soluble analyte; also called soluble human GPC3; glypican 3
T1 sequence (P51654 25-563 limits assumed): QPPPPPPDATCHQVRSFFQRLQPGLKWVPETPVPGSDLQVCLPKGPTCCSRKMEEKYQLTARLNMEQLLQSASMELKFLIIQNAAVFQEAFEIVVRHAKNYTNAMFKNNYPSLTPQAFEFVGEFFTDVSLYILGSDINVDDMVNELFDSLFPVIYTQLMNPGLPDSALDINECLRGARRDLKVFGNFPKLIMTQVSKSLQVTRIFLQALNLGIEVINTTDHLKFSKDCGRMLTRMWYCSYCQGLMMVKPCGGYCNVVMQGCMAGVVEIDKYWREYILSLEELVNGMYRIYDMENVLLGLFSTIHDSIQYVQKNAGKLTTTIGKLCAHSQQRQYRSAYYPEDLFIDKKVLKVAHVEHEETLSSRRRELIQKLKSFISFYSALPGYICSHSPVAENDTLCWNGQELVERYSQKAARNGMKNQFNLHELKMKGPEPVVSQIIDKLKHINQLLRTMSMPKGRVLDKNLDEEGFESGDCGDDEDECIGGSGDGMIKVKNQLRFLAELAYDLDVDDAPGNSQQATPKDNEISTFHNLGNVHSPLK
Protocol: The activity to bind human GPC3 when using GL4 (SEQ ID NO: 41) and L0000 (SEQ ID NO: 53) as the L-chain variable regions was evaluated. This was performed using the molecular form of a single-arm antibody having a single Fab at the Fc region of a human IgG1 heterodimerized by the knobs-into-hole technique. H0000 (SEQ ID NO: 40) was used for the anti-GPC3 antibody H-chain variable region.
The affinity and binding rate constants of an anti-GPC3 antibody for an antigen were measured by the multi-cycle kinetics method of a surface plasmon resonance assay using Biacore™-T200 (GE Healthcare Japan). HBS-EP+(GE Healthcare Japan) was used for the running buffer, and an amine coupling kit (GE Healthcare Japan) was used to covalently bind Protein A/G to the CM5 chip (carboxymethyl dextran-coated chip). […] Measurements were carried out by first allowing Protein A/G to capture the antibody solution, and then injecting the human GPC3 solution at a flow rate of […] for three minutes to allow reaction to take place. Then, the solution was switched to HBS-EP+ and the dissociation phase was measured for 15 minutes. After completion of the dissociation phase measurement, the sensor chip was regenerated by washing with 10 mM Gly-HCl at pH 1.5. Measurement at the concentration of 0 was similarly carried out by allowing Protein A/G to capture the antibody solution, performing a three-minute HBS-EP+ injection to allow reaction to take place, and then switching to HBS-EP+ to measure the dissociation phase for 15 minutes. After completion of the dissociation phase measurement, the sensor chip was regenerated by washing with 10 mM Gly-HCl at pH 1.5. A data analysis software exclusively for Biacore, Biacore T200 Evaluation Software Version 1.0, was used to perform kinetic analyses to calculate the binding rate constant (ka), dissociation rate constant (kd), and the rate constant ratio from the obtained sensorgrams.

human GPC3 [2] = molecular target: T1, human GPC3; test: SPR
[3] = molecular target: T2, soluble human CD3 epsilon chain (human, UniProt P07766 23-126); test: SPR
T2 construct: also called CD3ε
T2 sequence (P07766 23-126 limits assumed): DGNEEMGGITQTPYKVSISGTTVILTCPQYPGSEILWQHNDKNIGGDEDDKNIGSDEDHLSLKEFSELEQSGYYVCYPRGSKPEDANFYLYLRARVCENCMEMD

Row | Binder | Kd (human GPC3 [1]) [nM] | koff (human GPC3 [1]) [s⁻¹] | kon (human GPC3 [1]) [M⁻¹ s⁻¹] | Kd (human GPC3 [2]) [nM] | Kd [3] [nM]
1 | B1 | 4.2 | 0.0018 | 430000 | – | –
2 | B2 | 36 | 0.011 | 300000 | – | –
3 | B3 | – | – | – | 1.64 | 29.6
4 | B4 | – | – | – | 0.236 | 13.7
5 | B5 | – | – | – | 0.267 | 6.08
6 | B6 | – | – | – | 4.28 | 61.6
7 | B7 | – | – | – | 0.263 | 35.7
8 | B8 | – | – | – | 0.475 | 2.04
